B1: Cyclin-Y (Homo sapiens), Q8ND76-1 (parent)
chain: MGNTTSCCVSSSPKLRRNAHSRLESYRPDTDLSREDTGCNLQHISDRENIDDLNMEFNPSDHPRASTIFLSKSQTDVREKRKSLFINHHPPGQIARKYSSCSTIFLDDSTVSQPNLKYTIKCVALAIYYHIKNRDPDGRMLLDIFDENLHPLSKSEVPPDYDKHNPEQKQIYRFVRTLFSAAQLTAECAIVTLVYLERLLTYAEIDICPANWKRIVLGAILLASKVWDDQAVWNVDYCQILKDITVEDMNELERQFLELLQFNINVPSSVYAKYYFDLRSLAEANNLSFPLEPLSRERAHKLEAISRLCEDKYKDLRRSARKRSASADNLTLPRWSPAIIS

Variants of: B1
Details: with cdk16_human CDK16, Q00536
cdk16_human CDK16, Q00536, sequence (Q00536 whole entry): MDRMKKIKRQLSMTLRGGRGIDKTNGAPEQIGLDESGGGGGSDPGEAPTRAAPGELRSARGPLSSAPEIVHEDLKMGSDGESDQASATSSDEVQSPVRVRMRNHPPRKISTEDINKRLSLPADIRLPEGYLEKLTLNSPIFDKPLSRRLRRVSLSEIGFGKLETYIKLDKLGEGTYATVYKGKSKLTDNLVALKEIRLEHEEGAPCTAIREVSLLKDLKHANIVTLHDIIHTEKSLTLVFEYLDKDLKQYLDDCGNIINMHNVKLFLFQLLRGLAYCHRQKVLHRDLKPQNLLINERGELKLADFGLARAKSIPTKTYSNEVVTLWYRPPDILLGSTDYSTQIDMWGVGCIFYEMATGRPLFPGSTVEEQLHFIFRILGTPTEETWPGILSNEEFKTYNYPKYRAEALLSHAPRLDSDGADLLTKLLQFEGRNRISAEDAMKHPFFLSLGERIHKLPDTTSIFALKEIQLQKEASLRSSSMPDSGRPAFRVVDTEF

| effect of a mutation on the interaction | Variant |
| --- | --- |
| decreasing interaction strength | MGNTTSCCVSSSPKLRRNAHSRLESYRPDTDLSREDTGCNLQHISDRENIDDLNMEFNPSDHPRASTIFLSKSQTDVREKRKSLFINHHPPGQIARKYSSCSTIFLDDSTVSQPNLKYTIKCVALAIYYHIKNRDPDGRMLLDIFDENLHPLSKSEVPPDYDKHNPEQKQIYRFVRTLFSAAQLTAECAIVTLVYLERLLTYAEIDICPANWKRIVLGAILAAAKVWDDQAVWNVDYCQILKDITVEDMNELERQFLELLQFNINVPSSVYAKYYFDLRSLAEANNLSFPLEPLSRERAHKLEAISRLCEDKYKDLRRSARKRSASADNLTLPRWSPAIIS [L222A;S224A] |

Variants of: B1
Details: with cdk16_human CDK16, Q00536
Remark: another data set of the same source

| effect of a mutation on the interaction | Variant |
| --- | --- |
| disrupting interaction strength | MGNTTSCCVSSSPKLRRNAHSRLESYRPDTDLSREDTGCNLQHISDRENIDDLNMEFNPSDHPRASTIFLSKSQTDVREKRKSLFINHHPPGQIARKYSSCSTIFLDDSTVSQPNLKYTIKCVALAIYYHIKNRDPDGRMLLDIFDENLHPLSKSEVPPDYDKHNPEQKQIYRFVRTLFSAAQLTAECAIVTLVYLERLLTYAEIDICPANWKRIVLGAILAAAKVWDDQAVWNVDYCQILKDITVEDMNELERQFLELLQFNINVPSSVYAKYYFDLRSLAEANNLSFPLEPLSRERAHKLEAISRLCEDKYKDLRRSARKRSASADNLTLPRWSPAIIS [L222A;S224A] |

Reference: IntAct's records for PubMed 22184064
